Consider seven sequences from the supplement of paper PMC5998384.

Series [1] deals with HeLa Kyoto. Description: solubility in G1/S (NP-40 vs SDS abundance) (log2 ratio); higher = more soluble. The following applies: cell cycle stage: G1/S.
Series [2] relates to HeLa Kyoto. Description: melting temperature (median over replicates), in situ; higher = more thermally stable.
Series [3] has as its system HeLa Kyoto. Kind of series: solubility change mitosis vs G1/S (difference of NP-40 vs SDS log2 ratios) (log2 ratio difference); higher = more soluble in mitosis.
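Throughout, for melting temperature (median over replicates), in situ: HeLa Kyoto cells synchronized by double thymidine or nocodazole block, proteins quantified by TMT10plex mass spectrometry, three independent biological replicates.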
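Throughout, for solubility change mitosis vs G1/S (difference of NP-40 vs SDS log2 ratios): synchronized HeLa Kyoto cells (double thymidine block for G1/S, nocodazole release for mitosis), protein amounts in NP-40 versus SDS lysates quantified by mass spectrometry, three biological replicates.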
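Throughout, for solubility in G1/S (NP-40 vs SDS abundance): HeLa Kyoto cells arrested at G1/S by double thymidine block, proteins quantified by TMT10plex mass spectrometry in mild NP-40 versus SDS extracts, three biological replicates.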

As to “MEGGGGIPLETLKEESQSRHVLPASFEVNSLQKSNWGFLLTGLVGGTLVAVYAVATPFVTPALRKVCLPFVPATTKQIENVVKMLRCRRGSLVDIGSGDGRIVIAAAKKGFTAVGYELNPWLVWYSRYRAWREGVHGSAKFYISDLWKVTFSQYSNVVIFGVPQMMLQLEKKLERELEDDARVIACRFPFPHWTPDHVTGEGIDTVWAYDASTFRGREKRPCTSMHFQLPIQA [FAM173B]”, the “solubility in G1/S (log2)” value with HeLa Kyoto [1] is -0.208. Also, the melting temperature in the series on HeLa Kyoto [2] (cell cycle stage: G1/S) was found to be 54.7 °C. Further, the “solubility change mitosis (log2)” value with HeLa Kyoto [3] was -0.0503.

“MEGQSVEELLAKAEQDEAEKLQRITVHKELELQFDLGNLLASDRNPPTGLRCAGPTPEAELQALARDNTQLLINQLWQLPTERVEEAIVARLPEPTTRLPREKPLPRPRPLTRWQQFARLKGIRPKKKTNLVWDEVSGQWRRRWGYQRARDDTKEWLIEVPGNADPLEDQFAKRIQAKKERVAKNELNRLRNLARAHKMQLPSAAGLHPTGHQSKEELGRAMQVAKVSTASVGRFQERLPKEKVPRGSGKKRKFQPLFGDFAAEKKNQLELLRVMNSKKPQLDVTRATNKQMREEDQEEAAKRRKMSQKGKRKGGRQGPGGKRKGGPPSQGGKRKGGLGGKMNSGPPGLGGKRKGGQRPGGKRRK [RRS1]”: the “solubility in G1/S (log2)” value with HeLa Kyoto [1] was -1.81. In addition, the figures for the melting temperature with HeLa Kyoto [2] (cell cycle stage: G1/S) and in the series with HeLa Kyoto [2] (cell cycle stage: mitosis) were 55.2 °C and 53 °C, respectively. For the same sequence, the “solubility change mitosis (log2)” value in the series on HeLa Kyoto [3] was found to be 1.09.

On to “MELERIVSAALLAFVQTHLPEADLSGLDEVIFSYVLGVLEDLGPSGPSEENFDMEAFTEMMEAYVPGFAHIPRGTIGDMMQKLSGQLSDARNKENLQPQSSGVQGQVPISPEPLQRPEMLKEETRSSAAAAADTQDEATGAEEELLPGVDVLLEVFPTCSVEQAQWVLAKARGDLEEAVQMLVEGKEEGPAAWEGPNQDLPRRLRGPQKDELKSFILQKYMMVDSAEDQKIHRPMAPKEAPKKLIRYIDNQVVSTKGERFKDVRNPEAEEMKATYINLKPARKYRFH [CUEDC2]”, for which the “solubility in G1/S (log2)” value with HeLa Kyoto [1] came out at 0.417. Moreover, the melting temperature with HeLa Kyoto [2] (cell cycle stage: G1/S) came out at 46.8 °C; in the series with HeLa Kyoto [2] (cell cycle stage: mitosis) it was 51.7 °C. For the same sequence, the “solubility change mitosis (log2)” value in the series on HeLa Kyoto [3] stood at 0.134.

For “MELHILEHRLQVASVAKESIPLFTYGLIKLAFLSSKTRCKFFSLTETPEDYTIIVDEEGFLELPSSEHLSVADATWLALNVVSGGGSFSSSQPIGVTKIAKSVIAPLADQNISVFMLSTYQTDFILVRERDLPFVTHTLSSEFTILRVVNGETVAAENLGITNGFVKPKLVQRPVIHPLSSPSNRFCVTSLDPDTLPAVATLLMDVMFYSNGVKDPMATGDDCGHIRFFSFSLIEGYISLVMDVQTQQRFPSNLLFTSASGELWKMVRIGGQPLGFDECGIVAQISEPLAAADIPAYYISTFKFDHALVPEENINGVISALKVSQAEKH [GATSL2]”, in the series on HeLa Kyoto [1], the “solubility in G1/S (log2)” value turned out to be 0.084. Moreover, the melting temperature with HeLa Kyoto [2] (cell cycle stage: G1/S) worked out at 56.4 °C; in the series with HeLa Kyoto [2] (cell cycle stage: mitosis), 57.8 °C. Moreover, in the series on HeLa Kyoto [3], the “solubility change mitosis (log2)” value was -0.149.

On to “MELIQDTSRPPLEYVKGVPLIKYFAEALGPLQSFQARPDDLLINTYPKSGTTWVSQILDMIYQGGDLEKCNRAPIYVRVPFLEVNDPGEPSGLETLKDTPPPRLIKSHLPLALLPQTLLDQKVKVVYVARNPKDVAVSYYHFHRMEKAHPEPGTWDSFLEKFMAGEVSYGSWYQHVQEWWELSRTHPVLYLFYEDMKENPKREIQKILEFVGRSLPEETMDFMVQHTSFKEMKKNPMTNYTTVPQELMDHSISPFMRKGMAGDWKTTFTVAQNERFDADYAEKMAGCSLSFRSEL [SULT1A3]”, for which the “solubility in G1/S (log2)” value in the series with HeLa Kyoto [1] was determined as 0.432. For the same sequence, the melting temperature in the series with HeLa Kyoto [2] (cell cycle stage: G1/S) worked out at 48.5 °C; with HeLa Kyoto [2] (cell cycle stage: mitosis), 49.2 °C. For the same sequence, the “solubility change mitosis (log2)” value in the series with HeLa Kyoto [3] was -0.174.

On to “MELIQDTSRPPLEYVKGVPLIKYFAEALGPLQSFQARPDDLLISTYPKSGTTWVSQILDMIYQGGDLEKCHRAPIFMRVPFLEFKAPGIPSGMETLKDTPAPRLLKTHLPLALLPQTLLDQKVKVVYVARNAKDVAVSYYHFYHMAKVHPEPGTWDSFLEKFMVGEVSYGSWYQHVQEWWELSRTHPVLYLFYEDMKENPKREIQKILEFVGRSLPEETVDFVVQHTSFKEMKKNPMTNYTTVPQEFMDHSISPFMRKGMAGDWKTTFTVAQNERFDADYAEKMAGCSLSFRSEL [SULT1A1]”, for which, in the series with HeLa Kyoto [1], the “solubility in G1/S (log2)” value was 0.0556. In the series with HeLa Kyoto [2] (cell cycle stage: mitosis), this sequence showed a melting temperature of 49.2 °C. The “solubility change mitosis (log2)” value in the series on HeLa Kyoto [3] is -0.0949.

In the case of “MEPPNLYPVKLYVYDLSKGLARRLSPIMLGKQLEGIWHTSIVVHKDEFFFGSGGISSCPPGGTLLGPPDSVVDVGSTEVTEEIFLEYLSSLGESLFRGEAYNLFEHNCNTFSNEVAQFLTGRKIPSYITDLPSEVLSTPFGQALRPLLDSIQIQPPGGSSVGRPNGQS [DESI1]”, in the series on HeLa Kyoto [1], the “solubility in G1/S (log2)” value came out at 0.341. In addition, the melting temperature in the series with HeLa Kyoto [2] (cell cycle stage: G1/S) was 47.1 °C; with HeLa Kyoto [2] (cell cycle stage: mitosis) it was 48.4 °C. For the same sequence, the “solubility change mitosis (log2)” value in the series on HeLa Kyoto [3] is -0.0645.
